Source: article PMC9253678, “Computer-Aided Design of α-L-Rhamnosidase to Increase the Synthesis Efficiency of Icariside I” (Frontiers in Bioengineering and Biotechnology, 2022)
Where a chain is given by its changes, count along the chain named. Numbers in names are those of the source.

Substrate: COc1ccc(-c2oc3c(CC=C(C)C)c(O[C@@H]4O[C@H](CO)[C@@H](O)[C@H](O)[C@H]4O)cc(O)c3c(=O)c2O[C@@H]2O[C@@H](C)[C@H](O)[C@@H](O)[C@H]2O)cc1
Test: HPLC of icariside I formation, Michaelis-Menten nonlinear fit
Format: biochemical, Thermotoga petrophila
Text: HPLC of icariside I formation, Michaelis-Menten nonlinear fit on […]

[1] = optimal conditions of the mutant: 85°C, pH 4.6, icariin 0.1–4 mg/ml
[2] = optimal conditions of the mutant: 80°C, pH 6.0, icariin 0.1–4 mg/ml
[3] = optimal conditions of the mutant: 70°C, pH 4.6, icariin 0.1–4 mg/ml
[4] = optimal conditions of the mutant: 80°C, pH 5.0, icariin 0.1–4 mg/ml
[5] = optimal conditions of the mutant: 85°C, pH 5.0, icariin 0.1–4 mg/ml
[6] = optimal conditions of the mutant: 80°C, pH 4.6, icariin 0.1–4 mg/ml
[7] = optimal conditions of the enzyme: 80°C, pH 5.0, disodium hydrogen phosphate-citrate buffer, icariin 0.1–4 mg/ml

B1: TpeRha (Thermotoga petrophila RKU-1; D506A/H570A/K579A) (protein)
chain: MIQACDLRCEYLTSPVLGLDVIPRFSWRLKGNGKKQTRYKIIVSDNFDDIERGIGNVWESEKDSSKNLNIEYEGPKLKAYKGYYWRVKLWDEKENGPWSETAYFEMGPLEDWRGKWITMPSPLSFKDPAHRHELFYAMYFRKEFLLNKEVEKARVYVSGLGVYELHLNGKRVGNNVLDPAPTDYNKVALYSTYDVTQYLTTGKNTIGVILGNGRHIRDYGYSKPKLYLQLLVFYKDGSREFICSDETWKVSHGPLKENGIYFGEVYDARDEISGWDSPGFDDRNWSEVEIVEGPSLKAQLIPVIRVCEVIKPKRLWLSSRGTFIVDFGKNISGWVKLRVNNGKRGEKIIIRYAEVLDPSMDRLDTRNLRLARATDEYILKGQGVEIYEPRFTYHGFRYVEVEDYPGTLTSDNIEAMFVHTDVEKVGDFACSSELLNKIHSCVVNSQLANLMGIPTDCPQRDERMGWLGDAQLTVEEAMYNFDMAAFYTKYLMDIKLSQKEDGSISAVAPPYWKRYPSDPAWGTAYATILWYLYFFYEDRRVLEEHYDSLKRYVEFLRKNSPNHLTKLGQAGDWCPPGDAFPKRTPLILTSTWYYYHDTLILSEIAKILGKKEDEHEYRKLAGEIKEAFNRHFLRKVEDHTGRIVCFYRGIKLSPKDRIPTTQTCNVLPLWNKMVPEECREDVFKVLERLIEVDNDTHFDTGIVGTRYILEVLSENGRKDLALKLLLKEDYPSFGYMIKNGATTLWERWEKLEGTGMNSHNHVMLGSVDTWFYKYLSGIKPVAPGWKKIRIEPYFADQIDFVSAKIKTPNGSLEVSWKKQNKEYEIQIIIPVNTVGIFAVPESFKVSAINSKQVSYPSEFELEPGAYNIVLERVREC
notes: codon-optimized synthetic gene in pET-28a, E. coli BL21(DE3), Ni-NTA purified (His tag of vector); model domains span 1-861
- Km [1]: 1.11 ± 0.34 µM
- Vmax [1]: 6.59 µM/min
- kcat [1]: 0.000212 s⁻¹
- kcat/Km [1]: 191 M⁻¹ s⁻¹

B2: TpeRha (Thermotoga petrophila RKU-1; H570A) (protein)
chain: B1 chain with A506D, A579K
notes: as for B1
- Km [2]: 0.92 ± 0.08 µM
- Vmax [2]: 1.19 µM/min
- kcat [2]: 3.64e-05 s⁻¹
- kcat/Km [2]: 39.5 M⁻¹ s⁻¹

B3: TpeRha (Thermotoga petrophila RKU-1; D506A/K579A) (protein)
chain: B1 chain with A570H
notes: as for B1
- Km [3]: 1.39 ± 0.45 µM
- Vmax [3]: 1.37 µM/min
- kcat [3]: 5.68e-05 s⁻¹
- kcat/Km [3]: 40.9 M⁻¹ s⁻¹

B4: TpeRha (Thermotoga petrophila RKU-1; K579A) (protein)
chain: B1 chain with A506D, A570H
notes: as for B1
- Km [4]: 1.24 ± 0.09 µM
- Vmax [4]: 1.97 µM/min
- kcat [4]: 4.31e-05 s⁻¹
- kcat/Km [4]: 34.7 M⁻¹ s⁻¹

B5: TpeRha (Thermotoga petrophila RKU-1; D506A/H570A) (protein)
chain: B1 chain with A579K
notes: as for B1
- Km [1]: 0.51 ± 0.13 µM
- Vmax [1]: 2.5 µM/min
- kcat [1]: 9.87e-05 s⁻¹
- kcat/Km [1]: 194 M⁻¹ s⁻¹

B6: TpeRha (Thermotoga petrophila RKU-1; D506A) (protein)
chain: B1 chain with A570H, A579K
notes: as for B1
- Km [5]: 3.12 ± 0.26 µM
- Vmax [5]: 1.91 µM/min
- kcat [5]: 4.64e-05 s⁻¹
- kcat/Km [5]: 14.9 M⁻¹ s⁻¹

B7: TpeRha (Thermotoga petrophila RKU-1; H570A/K579A) (protein)
chain: B1 chain with A506D
notes: as for B1
- Km [6]: 0.93 ± 0.08 µM
- Vmax [6]: 5.56 µM/min
- kcat [6]: 0.000118 s⁻¹
- kcat/Km [6]: 127 M⁻¹ s⁻¹

B8: TpeRha (Thermotoga petrophila RKU-1) (protein)
chain: B1 chain with A506D, A570H, A579K
notes: as for B1
- Km [7]: 4.33 ± 3.47 µM
- Vmax [7]: 0.098 µM/min
- kcat [7]: 4e-06 s⁻¹
- kcat/Km [7]: 0.923 M⁻¹ s⁻¹
